Reference: US20200325237A1 (AVIDITY BIOSCIENCES, published 2020)
Values joined by “and” are separate entries in the source; they are usually repeats but may differ in a detail not shown here. Identical values can stand only once.

How the values were obtained:
[1] = molecular target: T1, recombinant human transferrin receptor protein (Sino Biological 11020-H07H) (human, UniProt P02786 89-760); experiment: ELISA on plate-coated recombinant human TfR1 (CD71); fit: specific binding with Hill slope
T1 construct: Bought protein coated on ELISA plates; also called recombinant human TfR1; human TfR1
Experimental: Half-well high-binding 96-well plates (Costar #3690) were coated with recombinant human transferrin receptor protein (Sino Biological 11020-H07H) or recombinant cyno transferrin receptor protein (Sino Biological 90253-C07H) at 1 ng/μL in PBS (Gibco 14190) and incubated overnight at 4° C. Plates were washed four times with 100 μL of Tris buffered saline+Tween (20×TBST, Cell Signaling 9997S). 100 μL of Superblock (ThermoFisher PI-37535) was added to each well and incubated for 1 hour at room temperature. The wash step was repeated before the addition of the samples. Samples were added at concentrations up to 10 nM, 50 μL/well. Plates were incubated for another hour at room temp and wash step repeated. Secondary antibody (Peroxidase AffiniPure Goat Anti-Human IgG, Fcγ Fragment Specific, Jackson Immunoresearch, 109-035-098) was diluted 1:5000 in Superblock and 50 μL/well added. Plates were incubated for 1 hour at room temperature and washed one more time. Binding was measured by the addition of 50 μL of 1-Step™ Ultra TMB-ELISA (ThermoFisher, 34028), incubated for 5 minutes, and the reaction was stopped with the addition of 25 μL of Stop Solution 2N sulfuric Acid (R&D Systems DY994). Absorbance was measured at 450 nm, with reference wavelength 570 nm subtracted. Binding constants were determined using GraphPad Prism Specific Binding with Hill Slope.

[2] = molecular target: T2, hTfR (human transferrin receptor, source and construct not stated) (human, UniProt P02786 89-760, limits assumed); experiment: SPR (BioRad ProteOn XPR36), mAb captured on Protein A, hTfR as analyte, 25 C; 13E4_WT 2nd run
Experimental: (§1) The binding kinetics of nine exemplary humanized anti-TfR antibodies and the parent chimeric antibody were characterized. Studies were run on a BioRad ProteOn XPR36 optical biosensor using a GLM sensor chip coated with Protein A for mAb capture. Running buffer included 10 mM EPES, 150 mM NaCl, pH 7.4 with 0.05 tween-20 with 0.2 mg/ml BSA. Data were collected at 25 degrees C. All mAbs were diluted into running buffer to 2 ug/ml based on the stock concentration provided. Each was then captured for 40 seconds over a Protein A surface.
(§2) hTfR (100 ug) was dissolved into […] of water to yield a 4.3 uM stock concentration. hTfR was dilted to 43 nM as the highest concentration and tested in a 3 fold dilution series. hTfR was injected at 200 ul/min for 2 minutes followed by a one-hour dissociation phase.

[3] = molecular target: T2, hTfR (human transferrin receptor, …); experiment: SPR (BioRad ProteOn XPR36), average of the three 13E4_WT runs, mAb captured on Protein A, hTfR as analyte, 25 C
Experimental: as §1, §2

[4] = molecular target: T2, hTfR (human transferrin receptor, …); experiment: SPR (BioRad ProteOn XPR36), mAb captured on Protein A, hTfR as analyte, 25 C
In short: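 Antibodies at 2 ug/ml were captured on a Protein A GLM chip for 40 s. hTfR was injected as analyte from 43 nM in a 3-fold series, 2 min association and 1 h dissociation. Run at 25 degrees C in HEPES/150 mM NaCl pH 7.4 with tween-20 and 0.2 mg/ml BSA.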

[5] = molecular target: T3, TfR2 (transferrin receptor 2) (UniProt Q9UP52 105-801, limits assumed); experiment: A450 plate assay on TfR2 (method not described in the text)
T3 sequence (looked up): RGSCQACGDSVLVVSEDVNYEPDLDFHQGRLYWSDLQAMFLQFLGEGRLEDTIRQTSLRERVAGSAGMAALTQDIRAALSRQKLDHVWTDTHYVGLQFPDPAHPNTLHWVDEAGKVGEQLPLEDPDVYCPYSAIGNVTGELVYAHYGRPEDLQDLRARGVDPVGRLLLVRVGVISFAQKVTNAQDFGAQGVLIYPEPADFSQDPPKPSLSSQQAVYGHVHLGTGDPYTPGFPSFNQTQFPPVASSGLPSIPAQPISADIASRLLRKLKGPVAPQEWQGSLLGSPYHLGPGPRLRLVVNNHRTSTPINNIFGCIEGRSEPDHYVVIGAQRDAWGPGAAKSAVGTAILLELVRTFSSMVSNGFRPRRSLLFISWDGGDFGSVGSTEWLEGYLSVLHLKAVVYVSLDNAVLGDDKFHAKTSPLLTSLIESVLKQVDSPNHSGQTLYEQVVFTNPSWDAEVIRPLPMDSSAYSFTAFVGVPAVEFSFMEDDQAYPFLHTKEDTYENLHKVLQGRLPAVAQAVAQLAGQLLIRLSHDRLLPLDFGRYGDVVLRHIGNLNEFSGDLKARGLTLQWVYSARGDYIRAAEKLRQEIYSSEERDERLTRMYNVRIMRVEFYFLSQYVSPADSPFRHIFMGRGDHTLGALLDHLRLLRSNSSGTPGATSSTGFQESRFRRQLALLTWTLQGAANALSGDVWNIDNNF

T1 sequence (P02786 89-760 limits assumed): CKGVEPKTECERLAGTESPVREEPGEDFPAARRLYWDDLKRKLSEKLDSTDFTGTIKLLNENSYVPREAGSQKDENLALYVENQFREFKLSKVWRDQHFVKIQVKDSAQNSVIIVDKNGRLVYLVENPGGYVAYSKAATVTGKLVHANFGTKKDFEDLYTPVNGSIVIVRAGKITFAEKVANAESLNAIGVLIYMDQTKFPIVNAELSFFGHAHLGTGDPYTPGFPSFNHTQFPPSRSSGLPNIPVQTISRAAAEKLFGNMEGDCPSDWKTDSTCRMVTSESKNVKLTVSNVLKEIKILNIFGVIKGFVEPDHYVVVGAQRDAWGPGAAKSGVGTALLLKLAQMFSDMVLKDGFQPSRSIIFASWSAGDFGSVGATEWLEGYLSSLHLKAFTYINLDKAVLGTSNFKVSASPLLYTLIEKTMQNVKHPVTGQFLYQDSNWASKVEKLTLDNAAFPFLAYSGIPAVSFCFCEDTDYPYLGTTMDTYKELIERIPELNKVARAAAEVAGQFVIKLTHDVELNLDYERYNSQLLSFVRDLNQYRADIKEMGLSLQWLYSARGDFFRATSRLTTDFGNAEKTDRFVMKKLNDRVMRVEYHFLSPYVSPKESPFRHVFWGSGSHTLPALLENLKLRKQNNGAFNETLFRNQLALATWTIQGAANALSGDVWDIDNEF
T2 sequence (P02786 89-760 limits assumed): as above

Bmax [1]: 98.3 % max binding | Kd [1]: 6.2 pM | h [1]: 1.18 | koff [2]: 1.5e-06 s⁻¹ | Kd [3]: 1.1 pM | koff [3]: 1e-06 s⁻¹ | kon [4]: 1.06e+06 M⁻¹ s⁻¹ and 903000 M⁻¹ s⁻¹ and 840000 M⁻¹ s⁻¹ | binding result [5]: no binding (tested: 1000 nM)
B1: 13E4_WT (parent chimeric anti-TfR antibody) (antibody, V domains shown)
VH: QVQLQQPGAELVKPGASVKLSCKASGYTFTNYWMHWVKQRPGQGLEWIGEINPINGRSNYGERFKTKATLTVDKSSSTAYMQLSSLTSEDSAVYYCARGTRAMHYWGQGTSVTVSS
VL: DIQMTQSPASLSVSVGETVTITCRTSENIYNNLAWYQQKQGKSPQLLVYAATNLADGVPSRFSGSGSGTQYSLKINSLQSEDFGNYYCQHFWGTPLTFGAGTKLELK
notes: also called 13E4_WT 1st; 13E4_WT 2nd
